Measurements from IntAct's records for PubMed 23873930.

B1: Transmembrane gamma-carboxyglutamic acid protein 4 (Homo sapiens), Q9BZD6 (parent)
chain: MFTLLVLLSQLPTVTLGFPHCARGPKASKHAGEEVFTSKEEANFFIHRRLLYNRFDLELFTPGNLERECNEELCNYEEAREIFVDEDKTIAFWQEYSAKGPTTKSDGNREKIDVMGLLTGLIAAGVFLVIFGLLGYYLCITKCNRLQHPCSSAVYERGRHTPSIIFRRPEEAALSPLPPSVEDAGLPSYEQAVALTRKHSVSPPPPYPGHTKGFRVFKKSMSLPSH
partner: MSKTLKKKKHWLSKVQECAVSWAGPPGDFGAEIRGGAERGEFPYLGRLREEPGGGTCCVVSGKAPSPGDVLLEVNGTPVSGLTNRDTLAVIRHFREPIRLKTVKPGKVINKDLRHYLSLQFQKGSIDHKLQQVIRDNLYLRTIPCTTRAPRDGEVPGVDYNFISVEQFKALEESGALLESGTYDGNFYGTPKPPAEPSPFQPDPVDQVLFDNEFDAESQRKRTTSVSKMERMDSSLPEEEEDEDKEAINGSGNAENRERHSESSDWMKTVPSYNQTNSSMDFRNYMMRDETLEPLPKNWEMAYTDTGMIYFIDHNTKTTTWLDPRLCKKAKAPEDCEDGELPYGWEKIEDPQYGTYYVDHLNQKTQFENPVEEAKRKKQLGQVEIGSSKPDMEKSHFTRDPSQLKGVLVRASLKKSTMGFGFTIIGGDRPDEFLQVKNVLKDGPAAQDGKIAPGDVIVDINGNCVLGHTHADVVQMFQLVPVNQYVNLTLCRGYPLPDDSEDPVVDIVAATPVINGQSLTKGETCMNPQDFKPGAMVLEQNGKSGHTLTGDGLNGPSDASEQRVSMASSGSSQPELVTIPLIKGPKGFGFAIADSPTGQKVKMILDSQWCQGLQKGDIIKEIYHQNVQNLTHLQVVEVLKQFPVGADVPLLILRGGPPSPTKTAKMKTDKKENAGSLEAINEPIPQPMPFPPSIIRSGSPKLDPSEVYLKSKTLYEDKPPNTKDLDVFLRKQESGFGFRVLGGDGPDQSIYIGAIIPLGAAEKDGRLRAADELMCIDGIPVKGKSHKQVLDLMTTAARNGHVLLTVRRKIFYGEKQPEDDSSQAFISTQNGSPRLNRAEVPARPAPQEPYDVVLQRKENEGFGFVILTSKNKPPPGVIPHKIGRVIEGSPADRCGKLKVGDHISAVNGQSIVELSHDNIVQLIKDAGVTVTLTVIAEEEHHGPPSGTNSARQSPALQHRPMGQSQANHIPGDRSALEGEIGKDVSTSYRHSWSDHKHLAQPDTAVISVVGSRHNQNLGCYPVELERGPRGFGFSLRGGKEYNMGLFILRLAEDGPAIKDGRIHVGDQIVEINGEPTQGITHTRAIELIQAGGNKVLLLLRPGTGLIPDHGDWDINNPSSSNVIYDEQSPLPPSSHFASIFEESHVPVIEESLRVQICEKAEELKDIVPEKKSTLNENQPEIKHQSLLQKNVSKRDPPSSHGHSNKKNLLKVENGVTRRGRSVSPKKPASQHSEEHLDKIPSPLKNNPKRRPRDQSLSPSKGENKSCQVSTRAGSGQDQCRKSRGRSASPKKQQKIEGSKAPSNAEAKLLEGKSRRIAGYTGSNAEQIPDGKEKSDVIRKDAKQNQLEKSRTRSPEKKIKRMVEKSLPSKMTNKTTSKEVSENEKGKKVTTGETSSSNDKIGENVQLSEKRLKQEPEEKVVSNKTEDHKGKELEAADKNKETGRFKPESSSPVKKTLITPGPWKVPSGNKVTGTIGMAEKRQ
B2: Transcriptional coactivator YAP1 (Homo sapiens), P46937-3 (parent)
chain: MDPGQQPPPQPAPQGQGQPPSQPPQGQGPPSGPGQPAPAATQAAPQAPPAGHQIVHVRGDSETDLEALFNAVMNPKTANVPQTVPMRLRKLPDSFFKPPEPKSHSRQASTDAGTAGALTPQHVRAHSSPASLQLGAVSPGTLTPTGVVSGPAATPTAQHLRQSSFEIPDDVPLPAGWEMAKTSSGQRYFLNHIDQTTTWQDPRKAMLSQMNVTAPTSPPVQQNMMNSASAMNQRISQSAPVKQPPPLAPQSPQGGVMGGSNSNQQQQMRLQQLQMEKERLRLKQQELLRQVRPQELALRSQLPTLEQDGGTQNPVSSPGMSQELRTMTTNSSDPFLNSGTYHSRDESTDSGLSMSSYSVPRTPDDFLNSVDEMDTGDTINQSTLPSQQNRFPDYLEAIPGTNVDLGTLEGDGMNIEGEELMPSLQEALSSDILNDMESVLAATKLDKESFLTWL
partner: B1 chain
B3: Transmembrane gamma-carboxyglutamic acid protein 4 (Homo sapiens), Q9BZD6 (parent)
chain: B1 chain

Variants of: B1
Settings: with magi3_human MAGI3, Q5TCQ9

effect of a mutation on the interaction	Variant
disrupting interaction strength	MFTLLVLLSQLPTVTLGFPHCARGPKASKHAGEEVFTSKEEANFFIHRRLLYNRFDLELFTPGNLERECNEELCNYEEAREIFVDEDKTIAFWQEYSAKGPTTKSDGNREKIDVMGLLTGLIAAGVFLVIFGLLGYYLCITKCNRLQHPCSSAVYERGRHTPSIIFRRPEEAALSPLPPSVEDAGLPSAEQAVALTRKHSVSPPPPYPGHTKGFRVFKKSMSLPSH [Y189A]
with no effect	MFTLLVLLSQLPTVTLGFPHCARGPKASKHAGEEVFTSKEEANFFIHRRLLYNRFDLELFTPGNLERECNEELCNYEEAREIFVDEDKTIAFWQEYSAKGPTTKSDGNREKIDVMGLLTGLIAAGVFLVIFGLLGYYLCITKCNRLQHPCSSAVYERGRHTPSIIFRRPEEAALSPLPPSVEDAGLPSYEQAVALTRKHSVSPPPPAPGHTKGFRVFKKSMSLPSH [Y207A]

Variants of: B2
Settings: with tmg4_human PRRG4, Q9BZD6

effect of a mutation on the interaction	Variant
disrupting interaction strength	W199A;P202A
with no effect	S127A

Variants of: B3
Settings: with Magi1, Q6RHR9-1
Magi1, Q6RHR9-1, sequence (Q6RHR9 whole entry): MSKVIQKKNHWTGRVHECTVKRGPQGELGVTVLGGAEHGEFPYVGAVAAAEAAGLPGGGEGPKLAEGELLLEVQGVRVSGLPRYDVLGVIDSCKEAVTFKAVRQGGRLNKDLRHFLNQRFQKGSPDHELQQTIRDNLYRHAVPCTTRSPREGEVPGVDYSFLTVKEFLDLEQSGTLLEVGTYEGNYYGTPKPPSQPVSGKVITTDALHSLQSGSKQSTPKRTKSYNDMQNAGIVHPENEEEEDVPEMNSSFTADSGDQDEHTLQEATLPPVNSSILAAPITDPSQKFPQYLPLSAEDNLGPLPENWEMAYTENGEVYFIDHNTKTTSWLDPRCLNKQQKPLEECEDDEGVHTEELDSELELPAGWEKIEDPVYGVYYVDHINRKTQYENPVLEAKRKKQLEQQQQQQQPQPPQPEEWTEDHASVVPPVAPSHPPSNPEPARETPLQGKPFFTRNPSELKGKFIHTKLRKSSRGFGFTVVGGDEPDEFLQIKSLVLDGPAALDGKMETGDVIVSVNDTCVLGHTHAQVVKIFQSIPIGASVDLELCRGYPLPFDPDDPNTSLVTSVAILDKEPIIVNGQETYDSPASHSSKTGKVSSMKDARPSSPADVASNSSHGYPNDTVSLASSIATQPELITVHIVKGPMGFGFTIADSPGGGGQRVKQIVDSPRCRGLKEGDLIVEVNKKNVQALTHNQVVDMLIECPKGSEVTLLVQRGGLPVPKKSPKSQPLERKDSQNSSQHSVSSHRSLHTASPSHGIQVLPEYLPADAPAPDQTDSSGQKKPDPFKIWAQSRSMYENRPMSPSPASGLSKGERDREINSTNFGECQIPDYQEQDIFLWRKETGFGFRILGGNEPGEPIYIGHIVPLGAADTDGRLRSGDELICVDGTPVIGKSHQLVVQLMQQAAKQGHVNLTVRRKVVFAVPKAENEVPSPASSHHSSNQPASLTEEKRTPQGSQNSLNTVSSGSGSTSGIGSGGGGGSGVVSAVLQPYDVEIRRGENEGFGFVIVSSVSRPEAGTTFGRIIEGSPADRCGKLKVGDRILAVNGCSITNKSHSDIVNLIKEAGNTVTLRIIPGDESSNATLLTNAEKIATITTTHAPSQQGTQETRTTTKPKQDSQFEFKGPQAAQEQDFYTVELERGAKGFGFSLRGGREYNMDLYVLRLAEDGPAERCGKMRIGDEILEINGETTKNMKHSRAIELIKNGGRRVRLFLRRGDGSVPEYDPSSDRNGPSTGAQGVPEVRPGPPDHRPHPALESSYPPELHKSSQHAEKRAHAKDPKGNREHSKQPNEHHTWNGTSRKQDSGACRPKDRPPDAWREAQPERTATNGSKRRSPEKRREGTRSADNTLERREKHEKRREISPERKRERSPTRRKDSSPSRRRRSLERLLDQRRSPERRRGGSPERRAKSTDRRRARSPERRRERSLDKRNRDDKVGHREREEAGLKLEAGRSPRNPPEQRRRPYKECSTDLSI

effect of a mutation on the interaction	Variant
decreasing interaction strength	MFTLLVLLSQLPTVTLGFPHCARGPKASKHAGEEVFTSKEEANFFIHRRLLYNRFDLELFTPGNLERECNEELCNYEEAREIFVDEDKTIAFWQEYSAKGPTTKSDGNREKIDVMGLLTGLIAAGVFLVIFGLLGYYLCITKCNRLQHPCSSAVYERGRHTPSIIFRRPEEAALSPLPPSVEDAGLPSYEQAVALTRKHSVSPPPPAPGHTKGFRVFKKSMSLPSH [Y207A]
disrupting interaction strength	MFTLLVLLSQLPTVTLGFPHCARGPKASKHAGEEVFTSKEEANFFIHRRLLYNRFDLELFTPGNLERECNEELCNYEEAREIFVDEDKTIAFWQEYSAKGPTTKSDGNREKIDVMGLLTGLIAAGVFLVIFGLLGYYLCITKCNRLQHPCSSAVYERGRHTPSIIFRRPEEAALSPLPPSVEDAGLPSAEQAVALTRKHSVSPPPPYPGHTKGFRVFKKSMSLPSH [Y189A]

Variants of: B3
Settings: with wwtr1_human WWTR1, Q9GZV5
wwtr1_human WWTR1, Q9GZV5, sequence (Q9GZV5 whole entry): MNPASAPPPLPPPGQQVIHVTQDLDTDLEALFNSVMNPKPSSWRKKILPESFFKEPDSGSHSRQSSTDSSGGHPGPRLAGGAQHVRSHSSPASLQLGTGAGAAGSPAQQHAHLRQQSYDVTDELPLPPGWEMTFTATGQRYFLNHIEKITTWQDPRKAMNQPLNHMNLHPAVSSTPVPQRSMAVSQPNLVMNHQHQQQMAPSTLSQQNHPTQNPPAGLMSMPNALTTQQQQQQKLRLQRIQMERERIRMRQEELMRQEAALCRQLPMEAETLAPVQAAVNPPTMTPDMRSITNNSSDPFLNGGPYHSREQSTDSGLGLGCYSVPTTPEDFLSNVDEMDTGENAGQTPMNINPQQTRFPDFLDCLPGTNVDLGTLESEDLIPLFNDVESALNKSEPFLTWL

effect of a mutation on the interaction	Variant
with no effect	MFTLLVLLSQLPTVTLGFPHCARGPKASKHAGEEVFTSKEEANFFIHRRLLYNRFDLELFTPGNLERECNEELCNYEEAREIFVDEDKTIAFWQEYSAKGPTTKSDGNREKIDVMGLLTGLIAAGVFLVIFGLLGYYLCITKCNRLQHPCSSAVYERGRHTPSIIFRRPEEAALSPLPPSVEDAGLPSYEQAVALTRKHSVSPPPPAPGHTKGFRVFKKSMSLPSH [Y207A]
disrupting interaction strength	MFTLLVLLSQLPTVTLGFPHCARGPKASKHAGEEVFTSKEEANFFIHRRLLYNRFDLELFTPGNLERECNEELCNYEEAREIFVDEDKTIAFWQEYSAKGPTTKSDGNREKIDVMGLLTGLIAAGVFLVIFGLLGYYLCITKCNRLQHPCSSAVYERGRHTPSIIFRRPEEAALSPLPPSVEDAGLPSAEQAVALTRKHSVSPPPPYPGHTKGFRVFKKSMSLPSH [Y189A]

Variants of: B3
Settings: with YAP1, P46937-3

effect of a mutation on the interaction	Variant
with no effect	MFTLLVLLSQLPTVTLGFPHCARGPKASKHAGEEVFTSKEEANFFIHRRLLYNRFDLELFTPGNLERECNEELCNYEEAREIFVDEDKTIAFWQEYSAKGPTTKSDGNREKIDVMGLLTGLIAAGVFLVIFGLLGYYLCITKCNRLQHPCSSAVYERGRHTPSIIFRRPEEAALSPLPPSVEDAGLPSYEQAVALTRKHSVSPPPPAPGHTKGFRVFKKSMSLPSH [Y207A]
disrupting interaction strength	MFTLLVLLSQLPTVTLGFPHCARGPKASKHAGEEVFTSKEEANFFIHRRLLYNRFDLELFTPGNLERECNEELCNYEEAREIFVDEDKTIAFWQEYSAKGPTTKSDGNREKIDVMGLLTGLIAAGVFLVIFGLLGYYLCITKCNRLQHPCSSAVYERGRHTPSIIFRRPEEAALSPLPPSVEDAGLPSAEQAVALTRKHSVSPPPPYPGHTKGFRVFKKSMSLPSH [Y189A]

Variants of: B3
Settings: with ned4l_human NEDD4L

effect of a mutation on the interaction	Variant
with no effect	MFTLLVLLSQLPTVTLGFPHCARGPKASKHAGEEVFTSKEEANFFIHRRLLYNRFDLELFTPGNLERECNEELCNYEEAREIFVDEDKTIAFWQEYSAKGPTTKSDGNREKIDVMGLLTGLIAAGVFLVIFGLLGYYLCITKCNRLQHPCSSAVYERGRHTPSIIFRRPEEAALSPLPPSVEDAGLPSYEQAVALTRKHSVSPPPPAPGHTKGFRVFKKSMSLPSH [Y207A]
disrupting interaction strength	MFTLLVLLSQLPTVTLGFPHCARGPKASKHAGEEVFTSKEEANFFIHRRLLYNRFDLELFTPGNLERECNEELCNYEEAREIFVDEDKTIAFWQEYSAKGPTTKSDGNREKIDVMGLLTGLIAAGVFLVIFGLLGYYLCITKCNRLQHPCSSAVYERGRHTPSIIFRRPEEAALSPLPPSVEDAGLPSAEQAVALTRKHSVSPPPPYPGHTKGFRVFKKSMSLPSH [Y189A]

Variants of: B3
Settings: with nedd4_human NEDD4, P46934
nedd4_human NEDD4, P46934, sequence (P46934 whole entry): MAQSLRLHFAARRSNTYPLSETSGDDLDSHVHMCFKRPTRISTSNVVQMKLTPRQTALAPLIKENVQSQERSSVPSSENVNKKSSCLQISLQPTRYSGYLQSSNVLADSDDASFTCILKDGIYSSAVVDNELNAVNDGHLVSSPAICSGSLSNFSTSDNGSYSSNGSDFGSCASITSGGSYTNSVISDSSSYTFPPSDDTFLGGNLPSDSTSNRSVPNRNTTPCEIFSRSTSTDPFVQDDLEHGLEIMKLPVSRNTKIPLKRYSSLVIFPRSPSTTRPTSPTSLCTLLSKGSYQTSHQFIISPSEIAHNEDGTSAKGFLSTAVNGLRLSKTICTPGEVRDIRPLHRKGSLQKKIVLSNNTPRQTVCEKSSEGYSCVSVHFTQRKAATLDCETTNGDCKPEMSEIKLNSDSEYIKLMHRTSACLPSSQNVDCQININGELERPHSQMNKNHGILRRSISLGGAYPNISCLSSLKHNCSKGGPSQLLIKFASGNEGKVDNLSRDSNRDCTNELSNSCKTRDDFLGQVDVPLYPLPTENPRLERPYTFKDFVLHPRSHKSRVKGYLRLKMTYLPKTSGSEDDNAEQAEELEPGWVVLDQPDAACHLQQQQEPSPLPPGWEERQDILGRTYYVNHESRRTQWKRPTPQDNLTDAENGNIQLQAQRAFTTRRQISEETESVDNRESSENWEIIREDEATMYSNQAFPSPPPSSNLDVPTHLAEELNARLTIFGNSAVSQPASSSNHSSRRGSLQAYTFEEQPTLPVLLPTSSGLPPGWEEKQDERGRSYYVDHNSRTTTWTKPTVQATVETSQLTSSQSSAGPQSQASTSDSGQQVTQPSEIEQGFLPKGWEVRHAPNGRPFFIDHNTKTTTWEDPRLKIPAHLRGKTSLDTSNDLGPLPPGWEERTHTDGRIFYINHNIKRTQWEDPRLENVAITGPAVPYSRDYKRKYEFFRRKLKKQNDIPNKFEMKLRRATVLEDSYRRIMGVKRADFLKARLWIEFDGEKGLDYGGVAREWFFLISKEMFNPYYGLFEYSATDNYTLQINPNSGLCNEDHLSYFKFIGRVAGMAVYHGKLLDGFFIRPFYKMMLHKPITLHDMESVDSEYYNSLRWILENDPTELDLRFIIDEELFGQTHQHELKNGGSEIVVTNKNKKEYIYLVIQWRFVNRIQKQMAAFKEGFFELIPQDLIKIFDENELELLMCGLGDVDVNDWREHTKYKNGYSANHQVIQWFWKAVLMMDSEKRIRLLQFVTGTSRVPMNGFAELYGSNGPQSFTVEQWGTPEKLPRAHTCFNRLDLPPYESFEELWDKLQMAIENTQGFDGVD

effect of a mutation on the interaction	Variant
with no effect	MFTLLVLLSQLPTVTLGFPHCARGPKASKHAGEEVFTSKEEANFFIHRRLLYNRFDLELFTPGNLERECNEELCNYEEAREIFVDEDKTIAFWQEYSAKGPTTKSDGNREKIDVMGLLTGLIAAGVFLVIFGLLGYYLCITKCNRLQHPCSSAVYERGRHTPSIIFRRPEEAALSPLPPSVEDAGLPSYEQAVALTRKHSVSPPPPAPGHTKGFRVFKKSMSLPSH [Y207A]
disrupting interaction strength	MFTLLVLLSQLPTVTLGFPHCARGPKASKHAGEEVFTSKEEANFFIHRRLLYNRFDLELFTPGNLERECNEELCNYEEAREIFVDEDKTIAFWQEYSAKGPTTKSDGNREKIDVMGLLTGLIAAGVFLVIFGLLGYYLCITKCNRLQHPCSSAVYERGRHTPSIIFRRPEEAALSPLPPSVEDAGLPSAEQAVALTRKHSVSPPPPYPGHTKGFRVFKKSMSLPSH [Y189A]
